The assay concerns the target SMARCD1 (human) (UniProt Q96GM5). The assay can be described thus: HA-bait purification from HEK-293T nuclear extract, mass spectrometry, peptide count.

SMARCD1 (human), sequence (Q96GM5 whole entry): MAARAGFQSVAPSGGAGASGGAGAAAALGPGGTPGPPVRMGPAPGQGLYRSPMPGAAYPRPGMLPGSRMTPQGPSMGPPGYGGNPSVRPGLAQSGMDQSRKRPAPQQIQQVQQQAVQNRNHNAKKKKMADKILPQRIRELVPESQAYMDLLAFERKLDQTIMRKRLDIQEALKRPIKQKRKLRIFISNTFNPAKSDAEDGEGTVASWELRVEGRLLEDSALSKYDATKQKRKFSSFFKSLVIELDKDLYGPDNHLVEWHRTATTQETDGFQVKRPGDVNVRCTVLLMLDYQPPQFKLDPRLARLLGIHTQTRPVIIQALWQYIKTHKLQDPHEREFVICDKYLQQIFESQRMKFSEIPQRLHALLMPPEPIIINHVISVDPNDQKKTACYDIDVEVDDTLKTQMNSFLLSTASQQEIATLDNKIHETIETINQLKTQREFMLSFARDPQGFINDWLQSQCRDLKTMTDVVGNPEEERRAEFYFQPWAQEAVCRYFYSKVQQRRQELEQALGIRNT

B1: HA-BRD7 (protein, human)
chain: MYPYDVPDYAMGKKHKKHKSDKHLYEEYVEKPLKLVLKVGGNEVTELSTGSSGHDSSLFEDKNDHDKHKDRKRKKRKKGEKQIPGEEKGRKRRRVKEDKKKRDRDRVENEAEKDLQCHAPVRLDLPPEKPLTSSLAKQEEVEQTPLQEALNQLMRQLQRKDPSAFFSFPVTDFIAPGYSMIIKHPMDFSTMKEKIKNNDYQSIEELKDNFKLMCTNAMIYNKPETIYYKAAKKLLHSGMKILSQERIQSLKQSIDFMADLQKTRKQKDGTDTSQSGEDGGCWQREREDSGDAEAHAFKSPSKENKKKDKDMLEDKFKSNNLEREQEQLDRIVKESGGKLTRRLVNSQCEFERRKPDGTTTLGLLHPVDPIVGEPGYCPVRLGMTTGRLQSGVNTLQGFKEDKRNKVTPVLYLNYGPYSSYAPHYDSTFANISKDDSDLIYSTYGEDSDLPSDFSIHEFLATCQDYPYVMADSLLDVLTKGGHSRTLQEMEMSLPEDEGHTRTLDTAKEMEITEVEPPGRLDSSTQDRLIALKAVTNFGVPVEVFDSEEAEIFQKKLDETTRLLRELQEAQNERLSTRPPPNMICLLGPSYREMHLAEQVTNNLKELAQQVTPGDIVSTYGVRKAMGISIPSPVMENNFVDLTEDTEEPKKTDVAECGPGGS
B1 registered a Total of 73 peptides and a Unique of 44 peptides.

Values taken from patent US20210388040A1.
